Legend:
Type in all cases: biochemical, Flavonifractor plautii
[1] = substrate: CC(=O)N[C@H]1[C@H](Oc2ccc3c(C)cc(=O)oc3c2)O[C@H](CO)[C@@H](O[C@@H]2O[C@H](CO)[C@H](O)[C@H](O[C@H]3O[C@H](CO)[C@H](O)[C@H](O)[C@H]3NC(C)=O)[C@H]2O[C@@H]2O[C@@H](C)[C@@H](O)[C@@H](O)[C@@H]2O)[C@@H]1O; test: Cleavage of A antigen Type2tetra-MU by FpGalNAcDeAc_D1min WT; conditions: other: WT, pH 7.4, 37° C.
Description: kcat/KM parameter were determined for A antigen subtype 1/2/4tetra-MU at pH 7.4 at 37° C. Reactions (total volume of 100 μL) were performed in black 96-plate wells and as coupled assays in 100 mM NaH2PO4 (pH 7.4) with 12 nM FpGalNAcDeacetylase 0.1 mg/mL SpHex, BgaC (BgaA for subtype II), AfcA, at varying concentrations of substrate (25 μM, 20 μM, 15 μM, 10 μM, 7.5 μM, 5 μM). The reactions were run as a series of four with controls (no FpGalNAcDeacetylase) as duplicates. The fluorescence signal (365/435 nm) resulting from MU release by hydrolysis was monitored on a Synergy H1™ plate reader (BioTek™) and converted to concentration using MU standard concentration curves determined under identical reaction conditions. Initial rates (μM/s) were determined and plotted in Grafit™ 7.0 to determine the kcat/KM (s^−1*mM^−1) parameters.
Based on structural information (not shown) and sequence alignment (not shown) FpGalNAcDeAc_D1min and FpGalNase_truncA were mutated using the QuickChange™ protocol (Zhang 2004), utilizing the primers noted in TABLE B. The mutants were purified via NiNTA and HIC columns as described above. The structural integrity of all mutants was checked via CD spectroscopy; all tested enzymes were structurally similar to their wild-type. […]

[2] = substrate: CC(=O)N[C@H]1[C@@H](O[C@H]2[C@@H](O)[C@@H](CO)O[C@@H](O[C@H]3[C@H](O)[C@@H](CO)O[C@@H](O[C@H]4[C@@H](O)[C@@H](CO)O[C@@H](Oc5ccc6c(C)cc(=O)oc6c5)[C@@H]4O)[C@@H]3NC(C)=O)[C@@H]2O[C@@H]2O[C@@H](C)[C@@H](O)[C@@H](O)[C@@H]2O)O[C@H](CO)[C@H](O)[C@@H]1O; test: Kinetic parameters of FpGalNAcDeAc_D1+2 (coupled fluorescence assay, MU release); conditions: other: 100 mM NaH2PO4, pH 7.4, 37° C.
Description: (§1) All kinetic assays utilizing 4-methylumbelliferone as leaving group were performed through measurement of fluorescence. To avoid measurement errors based on the inner filter effect (Palmier 2007) standard curves were used to validate the linear range of the fluorophore.
(§2) Michaelis-Menten parameters were determined for A antigen subtype 1penta-MU in 100 mM NaH2PO4, pH 7.4 at 37° C. using the coupled assays described previously (Kwan 2015). The assay was modified to allow detection of cleavage of the subtype 1 (and later 4), by use of BgaC (Jeong 2009) instead of BgaA (Singh 2014) as β-galactosidase. In addition, since A antigen subtype 1penta-MU contains an additional galactose, the concentration of BgaC was increased to 0.2 mg/mL to compensate for its need to cleave both the Gal-β-1,3-B-GlcNAc-β-1,3-Gal-β-MU and Gal-β-MU. Further, FpGalactosaminidase was included to allow the cleavage of the galactosamine-containing intermediate. Reaction setup in 100 μl was 3 nM FpGalNacDeacetylase (4.52 nM FpGalNacDeAc_D1ext, 3.55 nM FpGalNacDeAc_D1+2) and 0.01 mg/mL FpGalactosaminidase, 0.1 mg/mL SpHex, AfcA, 0.2 mg/mL BgaC and varying concentrations of substrate (5 μM-2.5 mM). The reactions were run as a series of four with controls (no FpGalNacDeacetylase) as duplicates. The fluorescence signal (365/435 nm) resulting from MU release by hydrolysis was monitored on a Synergy H1™ plate reader (BioTek™) and converted to concentration using MU standard concentration curves determined under identical reaction conditions. Initial rates (μM/s) were determined and plotted in Grafit 7.0 to determine the kinetic parameters.

[3] = substrate: CC(=O)N[C@H]1[C@H](O[C@H]2[C@@H](O)[C@@H](CO)O[C@@H](Oc3ccc4c(C)cc(=O)oc4c3)[C@@H]2O)O[C@H](CO)[C@@H](O)[C@@H]1O[C@@H]1O[C@H](CO)[C@H](O)[C@H](O[C@H]2O[C@H](CO)[C@H](O)[C@H](O)[C@H]2N)[C@H]1O[C@@H]1O[C@@H](C)[C@@H](O)[C@@H](O)[C@@H]1O; test: Kinetic parameters of FpGalNase_truncA (coupled fluorescence assay, MU release); conditions: other: 100 mM NaH2PO4, pH 7.4, 37° C.
Description: as §1
Michaelis-Menten parameter was determined for GalN antigen subtype 1penta-MU and A antigen subtype 1penta-MU in 100 mM NaH2PO4, pH 7.4 at 37° C. Reaction was performed in 100 μl with 3.4 nM FpGalactosaminidase (5.31 nM FpGalNase_truncA) and 0.1 mg/mL SpHex, AfcA, 0.2 mg/mL BgaC and varying concentrations of substrate (5 μM-2 mM). The reactions were run as a series of four with controls (no FpGalactosaminidase) as duplicates. The fluorescence signal (365/435 nm) resulting from MU release by hydrolysis was monitored by Synergy H1™ plate reader [BioTek™] and converted to concentration using MU standard concentration curves determined under identical reaction conditions. Initial rates (μM/s) were determined and plotted in Grafit 7.0™ to determine the kinetic parameters.

[4] = substrate: CC(=O)N[C@H]1[C@@H](O[C@H]2[C@@H](O)[C@@H](CO)O[C@@H](O[C@H]3[C@H](O)[C@@H](CO)O[C@@H](O[C@H]4[C@@H](O)[C@@H](CO)O[C@@H](Oc5ccc6c(C)cc(=O)oc6c5)[C@@H]4O)[C@@H]3NC(C)=O)[C@@H]2O[C@@H]2O[C@@H](C)[C@@H](O)[C@@H](O)[C@@H]2O)O[C@H](CO)[C@H](O)[C@@H]1O; test: Kinetic parameters of FpGalNAcDeAc_D1ext (coupled fluorescence assay, MU release); conditions: other: 100 mM NaH2PO4, pH 7.4, 37° C.
Description: as §1, §2

B1: Flavonifractor plautii GalNAcDeacetylase FpGalNAcDeAc_D1min, WT (Flavonifractor plautii) (protein)
chain: ADSSESALNKAPGYQDFPAYYSDSAHADDQVTHPDVVVLEEPWNGYRYWAVYTPNVMRISIYENPSIVASSDGVHWVEPEGLSNPIEPQPPSTRYHNCDADMVYNAEYDAMMAYWNWADDQGGGVGAEVRLRISYDGVHWGVPVTYDEMTRVWSKPTSDAERQVADGEDDFITAIASPDRYDMLSPTIVYDDFRDVFILWANNTGDVGYQNGQANFVEMRYSDDGITWGEPVRVNGFLGLDENGQQLAPWHQDVQYVPDLKEFVCISQCFAGRNPDGSVLHLTTSKDGVNWEQVGTKPLLSPGPDGSWDDFQIYRSSFYYEPGSSAGDGTMRVWYSALQKDTNNKMVADSSGNLTIQAKSEDDRIWRIGYAENSFVEMMRVLLDDPGYTTPALVSGNSLMLSAETTSLPTGDVMKLETSFAPVDTSDQVVKYTSSDPDVATVDEFGTITGVSVGSARIMAETREGLSDDLEIAVVENPYTLIPQSNMTATATSVYGGTTEGPASNVLDGNVRTIWHTNYAPKDELPQSITVSFDQPYTVGRFVYTPRQNGTNGIISEYELYAIHQDGSKDLVASGSDWALDAKDKTVSFAPVEAVGLELKAIAGAGGFGTAAELNVYAYGPIEPAPVYVPVDDRDASLVFTGAWNSDSNGSFYEGTARYTNEIGASVEFTFVGTAIRWYGQNDVNFGAAEVYVDGVLAGEVNVYGPAAAQQLLFEADGLAYGKHTIRIVCVSPVVDFDYFSYVGE
With B1 the kcat/Km [1] was 8210 ± 2070 M⁻¹ s⁻¹.

B2: Flavonifractor plautii GalNAcDeacetylase (FpGalNAcDeAc) truncation _D1 + 2 (Flavonifractor plautii) (protein)
chain: B1 chain
In the case of B2, the Km [2] is reported as 265 ± 43 µM, the kcat [2] is reported as 9.99 s⁻¹ and the kcat/Km [2] is reported as 37590 M⁻¹ s⁻¹.

B3: Flavonifractor plautii Galactosaminidase (FpGalNase) truncation _truncA (Flavonifractor plautii) (protein)
chain: AAPATDTGNAGLIAEGDYAIAGNGVRVTYDADGQTITLYRTEGSGLIQMSKPSPLGGPVIGGQEVQDFSHISCDVEQSTSGVMGSGQRMTITSQSMSTGLIRTYVLETSDIEEGVVYTATSYEAGASDVEVSWFIGSVYELYGAEDRIWSYNGGGEGPMHYYDTLQKIDLTDSGKFSRENKQDDTAASIPVSDIYIADGGITVGDASATRREVHTPVQETSDSAQVSIGWPGKVIAAGSVIEIGESFAVVHPGDYYNGLRGYKNAMDHLGVIMPAPGDIPDSSYDLRWESWGWGFNWTIDLIIGKLDELQAAGVKQITLDDGWYTNAGDWALNPEKFPNGASDALRLTDAIHEHGMTALLWWRPCDGGIDSILYQQHPEYFVMDADGRPARLPTPGGGTNPSLGYALCPMADGAIASQVDFVNRAMNDWGFDGFKGDYVWSMPECYNPAHNHASPEESTEKQSEIYRVSYEAMVANDPNVFNLLCNCGTPQDYYSLPYMTQIATADPTSVDQTRRRVKAYKALMGDYFPVTADHNNIWYPSAVGTGSVLIEKRDLSGTAKEEYEKWLGIADTVQLQKGRFIGDLYSYGFDPYETYVVEKDGVMYYAFYKDGSKYSPTGYPDIELKGLDPNKMYRIVDYVNDRVVATNLMGDNAVFNTRFSDYLLVKAVEISEPDPEPVDPDYGFTSVDDRDEALIYTGTWHDDNNASFSEGTARYTNSTDASVVFSFTGTSIRWYGQRDTNFGTAEVYLDDELKTTVDANGAAEAGVCLFEALDLPAAEHTIKIVCKSGVIDIDRFAYEAATLEPIYEKVDALSDRITYVGNWEEYHNSEFYMGNAMRTDEAGAYAELTFRGTAVRLYAEMSFNFGTADVYLDGELVENIILYGQEATGQLMFERTGLEEGEHTIRLVQNAWNINLDYISYLPEQDQPTPPETTVTVDAMDAQLVYTGVWNDDYHDVFQEGTARYASSAGASVEFEFTGSEIRWYGQNDSNFGVASVYIDNEFVQQVNVNGAAAVGKLLFQKADLPAGSHTIRIVCDTPVIDLDYLTYTTNA
B3 showed a Km [3] of 54.7 ± 3.1 µM, a kcat [3] of 1.86 s⁻¹ and a kcat/Km [3] of 34080 M⁻¹ s⁻¹.

B4: Flavonifractor plautii GalNAcDeacetylase (FpGalNAcDeAc) truncation _D1ext (Flavonifractor plautii) (protein)
chain: B1 chain
In the case of B4, the Km [4] is reported as 212 ± 37 µM, the kcat [4] is reported as 5.37 s⁻¹ and the kcat/Km [4] is reported as 25230 M⁻¹ s⁻¹.

— patent publication US20240294895A1, “ENZYMATIC COMPOSITIONS FOR CARBOHYDRATE ANTIGEN CLEAVAGE ON DONOR ORGANS, METHODS AND USES ASSOCIATED THEREWITH” (THE UNIVERSITY OF BRITISH COLUMBIA, priority 2018, published 2024)
